Source: the supplement of paper PMC10724198
± gives the standard deviation of the averaged measurements.

How the values were obtained:
[1] = system: Saccharomyces cerevisiae; test: protein stability index of tFT-peptide fusion (C-terminal peptide) (PSI (0-1 scale)); higher = more stable (slower turnover)
Protocol: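 MPS profiling in S. cerevisiae of the tFT-X12 degron library: putative degron peptides plus stable controls, 12 aa, fused to the C-terminus of a sfGFP-mCherry timer. Cells are FACS-sorted into 8 mCherry/sfGFP bins and deep-sequenced. PSI runs from 0 (unstable) to 1 (stable). Backgrounds are wild type, das1Δ and doa10Δ at 30 °C, and wild type, das1Δ, cdc34-1 and cdc53-1 at 37 °C; 2-3 technical replicates each.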

[2] = system: Saccharomyces cerevisiae; test: as above; conditions: genetic background: wild type; temperature: 30 C
[3] = genetic background: cdc34-1, temperature: 37 C
[4] = genetic background: cdc53-1, temperature: 37 C
[5] = genetic background: das1 deletion, temperature: 30 C
[6] = genetic background: das1 deletion, temperature: 37 C
[7] = genetic background: doa10 deletion, temperature: 30 C
[8] = genetic background: wild type, temperature: 30 C
[9] = genetic background: wild type, temperature: 37 C
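Note: PSI is a weighted mean of sequencing reads over stability bins, variants kept only with over 10 reads, mCherry proximal and sfGFP distal, peptide attached via GGGS linker.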

| Sequence | protein stability index [1, 3] | protein stability index [1, 4] | protein stability index [1, 5] | protein stability index [1, 6] | protein stability index [1, 7] | protein stability index [1, 8] | protein stability index [1, 9] | protein stability index [2] |
| --- | --- | --- | --- | --- | --- | --- | --- | --- |
| ACGAGFIILLGL | 0.641 ± 0.086 | 0.613 ± 0.014 | 0.524 ± 0.022 | 0.65 ± 0.015 | 0.571 ± 0.033 | 0.522 ± 0.019 | 0.633 ± 0.008 | 0.535 ± 0.077 |
| ACIFDMMWFWLF | 0.692 ± 0.068 | 0.721 ± 0.008 | 0.577 ± 0.034 | 0.75 ± 0.0093 | 0.427 ± 0.02 | 0.46 ± 0.02 | 0.573 ± 0.006 | 0.499 ± 0.032 |
| ACLLCVCVESRE | 0.531 ± 0.045 | 0.575 ± 0.053 | 0.414 ± 0.03 | 0.61303 ± 0.00036 | 0.38 ± 0.016 | 0.41 ± 0.015 | 0.5691 ± 0.0014 | 0.494 ± 0.013 |
| AELLMLRIFFLF | 0.281 ± 0.0063 | 0.48 ± 0.036 | 0.333 ± 0.019 | 0.491 ± 0.022 | 0.091 ± 0.0049 | 0.0708 ± 0.019 | 0.0944 ± 0.032 | 0.132 ± 0.027 |
| AFFGIYLICFIV | 0.118 ± 0.008 | 0.2044 ± 0.00042 | 0.225 ± 0.024 | 0.382 ± 0.014 | 0.1711 ± 0.001 | 0.125 ± 0.007 | 0.146 ± 0.013 | 0.207 ± 0.073 |
| AFRFLAVCVGCG | 0.144 ± 0.009 | 0.158 ± 0.013 | 0.218 ± 0.02 | 0.291 ± 0.0069 | 0.168 ± 0.0081 | 0.205 ± 0.018 | 0.24 ± 0.0071 | 0.263 ± 0.068 |
| AFRSPLLMLLVL | 0.336 ± 0.0057 | 0.381 ± 0.0068 | 0.32 ± 0.028 | 0.426 ± 0.01 | 0.32 ± 0.0039 | 0.262 ± 0.031 | 0.354 ± 0.0056 | 0.3468 ± 0.00084 |
| ALFISLAIWNWS | 0.0849 ± 0.024 | 0.154 ± 0.018 | 0.165 ± 0.027 | 0.318 ± 0.01 | 0.142 ± 0.011 | 0.139 ± 0.0085 | 0.2526 ± 0.00054 | 0.232 ± 0.012 |
| AMRTIFFPAFVS | 0.543 ± 0.033 | 0.708 ± 0.0082 | 0.655 ± 0.0093 | 0.743 ± 0.018 | 0.158 ± 0.014 | 0.157 ± 0.013 | 0.222 ± 0.0069 | 0.28 ± 0.075 |
| APGLLPPCLLVV | 0.374 ± 0.033 | 0.387 ± 0.013 | 0.307 ± 0.045 | 0.458 ± 0.014 | 0.263 ± 0.0047 | 0.3 ± 0.02 | 0.389 ± 0.0066 |  |
| APLSPLLPPFLC | 0.693 ± 0.036 | 0.729 ± 0.012 | 0.661 ± 0.024 | 0.74816 ± 0.00015 | 0.3485 ± 0.0016 | 0.369 ± 0.05 | 0.595 ± 0.013 | 0.391 ± 0.088 |
| APPPLFLIVLHL | 0.469 ± 0.0062 | 0.565 ± 0.0062 | 0.399 ± 0.036 | 0.604 ± 0.028 | 0.324 ± 0.019 | 0.3 ± 0.011 | 0.521 ± 0.026 | 0.424 ± 0.018 |
| APTMAIIVVHVR | 0.237 ± 0.022 | 0.291 ± 0.013 | 0.22 ± 0.034 | 0.3582 ± 0.0027 | 0.1859 ± 0.0016 | 0.207 ± 0.036 | 0.359 ± 0.019 | 0.3059 ± 0.0021 |
| ARKIGKVIPKLG | 0.686 ± 0.021 | 0.732 ± 0.037 | 0.634 ± 0.043 | 0.737 ± 0.02 | 0.292 ± 0.0097 | 0.341 ± 0.039 | 0.599 ± 0.011 | 0.43 ± 0.027 |
| ASLSSSRPPLLP | 0.685 ± 0.053 | 0.752 ± 0.02 | 0.658 ± 0.025 | 0.7114 ± 0.0024 | 0.644 ± 0.02 | 0.648 ± 0.014 | 0.6962 ± 0.0011 | 0.746 ± 0.051 |
| ASLVGGVLLVVV | 0.495 ± 0.0051 | 0.5 ± 0.012 | 0.346 ± 0.032 | 0.535 ± 0.0056 | 0.313 ± 0.017 | 0.352 ± 0.022 | 0.502 ± 0.022 | 0.454 ± 0.011 |
| AWPGRLWYFWLA | 0.655 ± 0.028 | 0.7846 ± 0.0056 | 0.637 ± 0.018 | 0.755 ± 0.011 | 0.189 ± 0.0052 | 0.215 ± 0.025 | 0.4106 ± 0.003 | 0.251 ± 0.14 |

| Sequence | protein stability index [1, 3] | protein stability index [1, 4] | protein stability index [1, 5] | protein stability index [1, 6] | protein stability index [1, 7] | protein stability index [1, 8] | protein stability index [1, 9] | protein stability index [2] |
| --- | --- | --- | --- | --- | --- | --- | --- | --- |
| AYCGGRNKCTTE | 0.689 ± 0.015 | 0.711 ± 0.021 | 0.644 ± 0.034 | 0.744 ± 0.013 | 0.659 ± 0.014 | 0.643 ± 0.011 | 0.712 ± 0.0078 | 0.701 ± 0.0081 |
| AYVAPRRALMCS | 0.422 ± 0.02 | 0.495 ± 0.019 | 0.352 ± 0.031 | 0.517 ± 0.011 | 0.259 ± 0.011 | 0.281 ± 0.018 | 0.406 ± 0.017 | 0.421 ± 0.069 |
| CEERVKSRLKQN | 0.619 ± 0.011 | 0.68 ± 0.013 | 0.653 ± 0.043 | 0.728 ± 0.014 | 0.174 ± 0.012 | 0.18 ± 0.031 | 0.307 ± 0.022 | 0.226 ± 0.082 |
| CFCLFVFFISSC | 0.2112 ± 0.00091 | 0.414 ± 0.015 | 0.223 ± 0.033 | 0.459 ± 0.015 | 0.19 ± 0.019 | 0.233 ± 0.019 | 0.397 ± 0.015 | 0.362 ± 0.057 |
| CFCSFQFVRLWV | 0.593 ± 0.0065 | 0.6165 ± 0.0048 | 0.49 ± 0.028 | 0.6443 ± 0.0064 | 0.455 ± 0.03 | 0.444 ± 0.011 | 0.58 ± 0.0096 | 0.452 ± 0.062 |
| CFFFPCFSFRFL | 0.39 ± 0.0076 | 0.448 ± 0.012 | 0.416 ± 0.024 | 0.528 ± 0.015 | 0.377 ± 0.02 | 0.296 ± 0.011 | 0.453 ± 0.033 | 0.342 ± 0.041 |
| CFFICGVFVFLM | 0.21 ± 0.07 | 0.338 ± 0.029 | 0.257 ± 0.03 | 0.435 ± 0.014 | 0.229 ± 0.01 | 0.244 ± 0.034 | 0.4088 ± 0.0015 | 0.3651 ± 0.00098 |
| CFFILSLMVVVI | 0.0733 ± 0.0068 | 0.16 ± 0.027 | 0.12 ± 0.029 | 0.229 ± 0.0071 | 0.0944 ± 0.0056 | 0.0999 ± 0.03 | 0.183 ± 0.0091 | 0.194 ± 0.054 |
| CFFLSFNVFRLF | 0.465 ± 0.059 | 0.559 ± 0.011 | 0.498 ± 0.034 | 0.633 ± 0.022 | 0.107 ± 0.0097 | 0.114 ± 0.033 | 0.113 ± 0.0019 | 0.148 ± 0.05 |
| CFVISVLFFFVG | 0.292 ± 0.011 | 0.491 ± 0.035 | 0.288 ± 0.035 | 0.467 ± 0.015 | 0.284 ± 0.024 | 0.286 ± 0.013 | 0.436 ± 0.03 | 0.444 ± 0.025 |
| CFVLVVCIPVMV | 0.2 ± 0.0041 | 0.247 ± 0.033 | 0.198 ± 0.023 | 0.3457 ± 0.0017 | 0.18 ± 0.009 | 0.207 ± 0.024 | 0.3279 ± 0.0019 | 0.31 ± 0.035 |
| CFVQVGGLVKIS | 0.66 ± 0.045 | 0.725 ± 0.042 | 0.61 ± 0.012 | 0.731 ± 0.033 | 0.248 ± 0.02 | 0.293 ± 0.036 | 0.57 ± 0.04 | 0.412 ± 0.012 |
| CFVSFLHLLYFS | 0.347 ± 0.044 | 0.341 ± 0.025 | 0.35 ± 0.025 | 0.4666 ± 8.3e-05 | 0.506 ± 0.0063 | 0.296 ± 0.024 | 0.425 ± 0.0054 | 0.362 ± 0.015 |
| CGFVCGLCLCRV | 0.552 ± 0.052 | 0.586 ± 0.016 | 0.364 ± 0.04 | 0.605 ± 0.042 | 0.345 ± 0.023 | 0.381 ± 0.031 | 0.572 ± 0.013 | 0.484 ± 0.0062 |
| CGFVFFVLVVFW | 0.112 ± 0.0055 | 0.17 ± 0.0063 | 0.12 ± 0.033 | 0.229 ± 0.0079 | 0.15 ± 0.0054 | 0.114 ± 0.025 | 0.193 ± 0.026 | 0.15 ± 0.035 |
| CGQIAFLGIAVK | 0.479 ± 0.0077 | 0.504 ± 0.043 | 0.317 ± 0.042 | 0.551 ± 0.024 | 0.289 ± 0.015 | 0.323 ± 0.029 | 0.541 ± 0.0077 | 0.4722 ± 0.0006 |
